Experiment [1] addresses T1, APP-TAP-AICD (human, UniProt P05067 18-695). As to the kind of experiment: streptavidin purification of APP-TAP-AICD from brain homogenate; iTRAQ 116/114, transgenic mouse 75 vs control mouse 72; MALDI-TOF/TOF.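 Note: relative protein abundance in the transgenic versus control pull-down, limited to proteins with high quality scores and above-average enrichment, without full normalization across the whole measurement.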
Excerpt: (§1) Shown are all proteins that have high quality scores and are enriched above average in the m75 sample. Purified bait protein is given underlined. Other already known interaction partners of AICD or putatively biologically relevant proteins are given in bold. As full normalization over the entire measurement was not possible through the GPS explorer software suite, this conservative estimate had to be taken for determining the enriched vs. the non-enriched proteins. […] Ranking is in order of abundance ratio.
Experiment [2] has as its target T1, APP-TAP-AICD. As to the kind of experiment: streptavidin purification of APP-TAP-AICD from brain homogenate; LTQ-FT semiquantitative method, transgenic mouse 75 vs control mouse 72.
Experiment [3] addresses T2, APP-TAP-AICD (human, UniProt P05067-4 18-695).
T2 construct: Bait purified from brain homogenate of hemizygous transgenic mice via streptavidin; full-length APP and cleaved C-terminal stubs are isolated; also called TAP-tagged full-length human APP
As to the kind of experiment: streptavidin purification of APP-TAP-AICD from brain homogenate; iTRAQ 116/114, transgenic mouse 75 vs control mouse 72; MALDI-TOF/TOF.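 Note: relative protein abundance in the transgenic versus control pull-down, limited to proteins with high quality scores and above-average enrichment, without full normalization across the whole measurement.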
Excerpt: as §1

B1: Dynamin-1 (enzyme, mouse, UniProt P39053 1-867, looked up)
chain: MGNRGMEDLIPLVNRLQDAFSAIGQNADLDLPQIAVVGGQSAGKSSVLENFVGRDFLPRGSGIVTRRPLVLQLVNSTTEYAEFLHCKGKKFTDFEEVRLEIEAETDRVTGTNKGISPVPINLRVYSPHVLNLTLVDLPGMTKVPVGDQPPDIEFQIRDMLMQFVTKENCLILAVSPANSDLANSDALKIAKEVDPQGQRTIGVITKLDLMDEGTDARDVLENKLLPLRRGYIGVVNRSQKDIDGKKDITAALAAERKFFLSHPSYRHLADRMGTPYLQKVLNQQLTNHIRDTLPGLRNKLQSQLLSIEKEVDEYKNFRPDDPARKTKALLQMVQQFAVDFEKRIEGSGDQIDTYELSGGARINRIFHERFPFELVKMEFDEKELRREISYAIKNIHGIRTGLFTPDMAFETIVKKQVKKIREPCLKCVDMVISELISTVRQCTKKLQQYPRLREEMERIVTTHIREREGRTKEQVMLLIDIELAYMNTNHEDFIGFANAQQRSNQMNKKKTSGNQDEILVIRKGWLTINNIGIMKGGSKEYWFVLTAENLSWYKDDEEKEKKYMLSVDNLKLRDVEKGFMSSKHIFALFNTEQRNVYKDYRQLELACETQEEVDSWKASFLRAGVYPERVGDKEKASETEENGSDSFMHSMDPQLERQVETIRNLVDSYMAIVNKTVRDLMPKTIMHLMINNTKEFIFSELLANLYSCGDQNTLMEESAEQAQRRDEMLRMYHALKEALSIIGDINTTTVSTPMPPPVDDSWLQVQSVPAGRRSPTSSPTPQRRAPAVPPARPGSRGPAPGPPPAGSALGGAPPVPSRPGASPDPFGPPPQVPSRPNRAPPGVPSLGAWRLNSPQGKHENRAGKARL
notes: also called DYN1_MOUSE; Dynamin I
Regarding B1, the iTRAQ ratio with APP-TAP-AICD [1] is 4.57. Also, the “probability that this protein is enriched” value with APP-TAP-AICD [2] is 0.82.

B2: 14-3-3 protein epsilon (14-3-3E) (other, mouse, UniProt P62259 1-255, looked up)
chain: MDDREDLVYQAKLAEQAERYDEMVESMKKVAGMDVELTVEERNLLSVAYKNVIGARRASWRIISSIEQKEENKGGEDKLKMIREYRQMVETELKLICCDILDVLDKHLIPAANTGESKVFYYKMKGDYHRYLAEFATGNDRKEAAENSLVAYKAASDIAMTELPPTHPIRLGLALNFSVFYYEILNSPDRACRLAKAAFDDAIAELDTLSEESYKDSTLIMQLLRDNLTLWTSDMQGDGEEQNKEALQDVEDENQ
For B2, the iTRAQ ratio with APP-TAP-AICD [1] amounted to 3.94. In addition, the “probability that this protein is enriched” value in the experiment with APP-TAP-AICD [2] came out at 1.

B3: Gamma enolase (2-phospho-D-glycerate hydrolyase) (Neural enolase) (enzyme, mouse, UniProt P17183 2-434, looked up)
chain: SIEKIWAREILDSRGNPTVEVDLYTAKGLFRAAVPSGASTGIYEALELRDGDKQRYLGKGVLKAVDHINSRIAPALISSGISVVEQEKLDNLMLELDGTENKSKFGANAILGVSLAVCKAGAAERDLPLYRHIAQLAGNSDLILPVPAFNVINGGSHAGNKLAMQEFMILPVGAESFRDAMRLGAEVYHTLKGVIKDKYGKDATNVGDEGGFAPNILENSEALELVKEAIDKAGYTEKMVIGMDVAASEFYRDGKYDLDFKSPADPSRYITGDQLGALYQDFVRNYPVVSIEDPFDQDDWAAWSKFTANVGIQIVGDDLTVTNPKRIERAVEEKACNCLLLKVNQIGSVTEAIQACKLAQENGWGVMVSHRSGETEDTFIADLVVGLCTGQIKTGAPCRSERLAKYNQLMRIEEELGDEARFAGHNFRNPSVL
notes: also called neuron-specific enolase
For B3, in the experiment with APP-TAP-AICD [1], the iTRAQ ratio came to 4.08. For the same molecule, in the experiment with APP-TAP-AICD [2], the “probability that this protein is enriched” value was found to be 1.

B4: Aconitate hydratase; mitochondrial precursor (Citrate hydro-lyase) (enzyme, mouse, UniProt Q99KI0 28-780, looked up)
chain: QRAKVAMSHFEPSEYIRYDLLEKNINIVRKRLNRPLTLSEKIVYGHLDDPANQEIERGKTYLRLRPDRVAMQDATAQMAMLQFISSGLPKVAVPSTIHCDHLIEAQVGGEKDLRRAKDINQEVYNFLATAGAKYGVGFWRPGSGIIHQIILENYAYPGVLLIGTDSHTPNGGGLGGICIGVGGADAVDVMAGIPWELKCPKVIGVKLTGSLSGWTSPKDVILKVAGILTVKGGTGAIVEYHGPGVDSISCTGMATICNMGAEIGATTSVFPYNHRMKKYLSKTGRTDIANLAEEFKDHLVPDPGCQYDQVIEINLNELKPHINGPFTPDLAHPVADVGTVAEKEGWPLDIRVGLIGSCTNSSYEDMGRSAAVAKQALAHGLKCKSQFTITPGSEQIRATIERDGYAQILRDVGGIVLANACGPCIGQWDRKDIKKGEKNTIVTSYNRNFTGRNDANPETHAFVTSPEIVTALAIAGTLKFNPETDFLTGKDGKKFKLEAPDADELPRSDFDPGQDTYQHPPKDSSGQRVDVSPTSQRLQLLEPFDKWDGKDLEDLQILIKVKGKCTTDHISAAGPWLKFRGHLDNISNNLLIGAINIENGKANSVRNAVTQEFGPVPDTARYYKKHGIRWVVIGDENYGEGSSREHAALEPRHLGGRAIITKSFARIHETNLKKQGLLPLTFADPSDYNKIHPVDKLTIQGLKDFAPGKPLKCVIKHPNGTQETILLNHTFNETQIEWFRAGSALNRMKELQQ
notes: also called Aconitase
B4: the iTRAQ ratio with APP-TAP-AICD [1] amounted to 4.53. The “probability that this protein is enriched” value with APP-TAP-AICD [2] came to 1.

B5: 14-3-3 protein zeta/delta (Protein kinase C inhibitor protein-1) (KCIP-1) (SEZ-2) (other, mouse, UniProt P63101 1-245, looked up)
chain: MDKNELVQKAKLAEQAERYDDMAACMKSVTEQGAELSNEERNLLSVAYKNVVGARRSSWRVVSSIEQKTEGAEKKQQMAREYREKIETELRDICNDVLSLLEKFLIPNASQPESKVFYLKMKGDYYRYLAEVAAGDDKKGIVDQSQQAYQEAFEISKKEMQPTHPIRLGLALNFSVFYYEILNSPEKACSLAKTAFDEAIAELDTLSEESYKDSTLIMQLLRDNLTLWTSDTQGDEAEAGEGGEN
As for B5, in the experiment with APP-TAP-AICD [1], the iTRAQ ratio turned out to be 4.51. Moreover, in the experiment with APP-TAP-AICD [2], the “probability that this protein is enriched” value was 0.83.

B6: 14-3-3 protein gamma (other, mouse, UniProt P61982 1-247, looked up)
chain: MVDREQLVQKARLAEQAERYDDMAAAMKNVTELNEPLSNEERNLLSVAYKNVVGARRSSWRVISSIEQKTSADGNEKKIEMVRAYREKIEKELEAVCQDVLSLLDNYLIKNCSETQYESKVFYLKMKGDYYRYLAEVATGEKRATVVESSEKAYSEAHEISKEHMQPTHPIRLGLALNYSVFYYEIQNAPEQACHLAKTAFDDAIAELDTLNEDSYKDSTLIMQLLRDNLTLWTSDQQDDDGGEGNN
notes: also called 14-3-3 γ
On to B6, for which, in the experiment with APP-TAP-AICD [1], the iTRAQ ratio was determined as 4.28. Moreover, the “probability that this protein is enriched” value with APP-TAP-AICD [2] was 0.83.

B7: Guanine nucleotide-binding protein G(o); alpha subunit 1 (other, mouse, UniProt P18872 2-354, looked up)
chain: GCTLSAEERAALERSKAIEKNLKEDGISAAKDVKLLLLGAGESGKSTIVKQMKIIHEDGFSGEDVKQYKPVVYSNTIQSLAAIVRAMDTLGVEYGDKERKTDSKMVCDVVSRMEDTEPFSAELLSAMMRLWGDSGIQECFNRSREYQLNDSAKYYLDSLDRIGAGDYQPTEQDILRTRVKTTGIVETHFTFKNLHFRLFDVGGQRSERKKWIHCFEDVTAIIFCVALSGYDQVLHEDETTNRMHESLMLFDSICNNKFFIDTSIILFLNKKDLFGEKIKKSPLTICFPEYPGSNTYEDAAAYIQTQFESKNRSPNKEIYCHMTCATDTNNIQVVFDAVTDIIIANNLRGCGLY
notes: also called GNAO1_MOUSE
B7: the iTRAQ ratio with APP-TAP-AICD [3] turned out to be 3.38.

B8: Vesicle-fusing ATPase (EC 3.6.4.6) (Vesicular-fusion protein NSF) (N-ethylmaleimide sensitive fusion protein) (enzyme, mouse, UniProt P46460 1-744, looked up)
chain: MAGRTMQAARCPTDELSLSNCAVVNEKDFQSGQHVMVRTSPNHKYIFTLRTHPSVVPGCIAFSLPQRKWAGLSIGQDIEVALYSFDKAKQCIGTMTIEIDFLQKKNIDSNPYDTDKMAAEFIQQFNNQAFSVGQQLVFSFNDKLFGLLVKDIEAMDPSILKGEPASGKRQKIEVGLVVGNSQVAFEKAENSSLNLIGKAKTKENRQSIINPDWNFEKMGIGGLDKEFSDIFRRAFASRVFPPEIVEQMGCKHVKGILLYGPPGCGKTLLARQIGKMLNAREPKVVNGPEILNKYVGESEANIRKLFADAEEEQRRLGANSGLHIIIFDEIDAICKQRGSMAGSTGVHDTVVNQLLSKIDGVEQLNNILVIGMTNRPDLIDEALLRPGRLEVKMEIGLPDEKGRLQILHIHTARMRGHQLLSADVDIKELAVETKNFSGAELEGLVRAAQSTAMNRHIKASTKVEVDMEKAESLQVTRGDFLASLENDIKPAFGTNQEDYASYIMNGIIKWGDPVTRVLDDGELLVQQTKNSDRTPLVSVLLEGPPHSGKTALAAKIAEESNFPFIKICSPDKMIGFSETAKCQAMKKIFDDAYKSQLSCVVVDDIERLLDYVPIGPRFSNLVLQALLVLLKKAPPQGRKLLIIGTTSRKDVLQEMEMLNAFSTTIHVPNIATGEQLLEALELLGNFKDKERTTIAQQVKGKKVWIGIKKLLMLIEMSLQMDPEYRVRKFLALMREEGASPLDFD
On to B8, for which the iTRAQ ratio in the experiment with APP-TAP-AICD [1] was determined as 4. For the same molecule, the “probability that this protein is enriched” value with APP-TAP-AICD [2] is 0.86.

B9: SH3-containing GRB2-like protein 1 (SH3 domain protein 2B) (SH3p8) (other, mouse, UniProt Q62419 1-368, looked up)
chain: MSVAGLKKQFYKASQLVSEKVGGAEGTKLDDDFKDMEKKVDVTSKAVAEVLVRTIEYLQPNPASRAKLTMLNTVSKIRGQVKNPGYPQSEGLLGECMVRHGKELGGESNFGDALLDAGESMKRLAEVKDSLDIEVKQNFIDPLQNLCDKDLKEIQHHLKKLEGRRLDFDYKKKRQGKIPDEELRQALEKFEESKEVAETSMHNLLETDIEQVSQLSALVDAQLDYHRQAVQILEELADKLKRRVREASSRPKREFKPRPREPFELGELEQPNGGFPCAPAPKITASSSFRSSDKPIRMPSKSMPPLDQPSCKALYDFEPENDGELGFREGDLITLTNQIDENWYEGMLHGQSGFFPLSYVQVLVPLPQ
notes: also called SH3G1_MOUSE
Turning to B9, the iTRAQ ratio with APP-TAP-AICD [1] was 3.64. In the experiment with APP-TAP-AICD [2], the “probability that this protein is enriched” value is 1.

The values are drawn from US20100169988A1 (published 2010).
